From publication PMC11179954 (MedComm, 2024)

Columns and labels:
[1] = molecular target: T1, wild-type human Y1R (NPY1R-WT, hY1R) (Homo sapiens, UniProt P25929); test: GloSensor cAMP inhibition assay in HEK293 cells; type: cell-based; conditions: wildtype Y1R, Figure 1B
T1 construct: Flag; expressed in transfected cells; host or cells: HEK293
T1 sequence (P25929 1-384): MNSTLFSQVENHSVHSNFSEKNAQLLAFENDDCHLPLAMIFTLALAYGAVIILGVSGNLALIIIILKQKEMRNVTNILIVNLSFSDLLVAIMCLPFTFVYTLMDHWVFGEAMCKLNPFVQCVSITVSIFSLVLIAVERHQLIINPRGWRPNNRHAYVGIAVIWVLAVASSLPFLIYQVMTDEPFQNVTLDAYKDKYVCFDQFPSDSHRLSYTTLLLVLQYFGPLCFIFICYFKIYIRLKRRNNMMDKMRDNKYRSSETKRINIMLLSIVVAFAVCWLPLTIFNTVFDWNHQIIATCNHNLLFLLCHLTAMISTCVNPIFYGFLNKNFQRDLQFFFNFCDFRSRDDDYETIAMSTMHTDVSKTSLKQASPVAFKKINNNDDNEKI
Procedure: Following a subsequent 1 -hour incubation, ligands, diluted in assay buffer with forskolin, were introduced to the cells. Subsequently, the cells wer e incubated for 30 minutes in a light-free environment at room temperature Fluorescence signals were measured using a Synergy H1 microplate reader (BioTek). GraphPad Prism 8 (GraphPad Software) was used to processing data using the nonlinear regression dos e-response function. Results were represented as the mean ± s.e.m. from three independent experiments . All experiments were repeated at least three times.

[2] = molecular target: T2, wildtype Y2R (Homo sapiens, UniProt P49146); test: GloSensor cAMP inhibition assay in HEK293 cells; type: cell-based; conditions: Figure 1C
T2 construct: Flag; expressed in transfected cells; host or cells: HEK293
T2 sequence (P49146 1-381): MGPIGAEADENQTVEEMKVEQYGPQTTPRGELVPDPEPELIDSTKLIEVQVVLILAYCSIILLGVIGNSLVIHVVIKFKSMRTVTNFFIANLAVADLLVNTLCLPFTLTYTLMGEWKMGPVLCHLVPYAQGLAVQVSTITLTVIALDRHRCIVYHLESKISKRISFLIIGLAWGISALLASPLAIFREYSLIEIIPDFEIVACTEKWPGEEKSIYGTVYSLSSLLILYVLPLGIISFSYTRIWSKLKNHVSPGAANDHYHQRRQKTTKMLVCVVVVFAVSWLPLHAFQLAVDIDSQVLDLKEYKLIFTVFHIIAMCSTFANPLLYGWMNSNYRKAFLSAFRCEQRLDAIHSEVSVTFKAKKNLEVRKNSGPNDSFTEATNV
Procedure: EM density map11, the coordinates were subsequently manual adjustment and rebuilding in COOT 12. Real space refinement was performed in Phenix program 13.
The model statistics were finally validated by using MolProbity 14 in Phenix. The refinement statistics are presented in supplemental information table S1. UCSF Chimera11, Chimera X 15 and PyMOL (https://pymol.org/2/) were used to generate the […]
Cyclic adenosine 3′,5′-monophosphate (cAMP) assay.
To measure the ligand-induced Gi signaling activation potency of wild -type NPYR or mutants, the GloSensor cAMP assay (Promega) was conducted following a previous study. Briefly, HEK293 cells were co -transfected with the GloSensor plasmid and various NPYR constructs or pcDNA3.1 (as a negative control) plasmids using Polyethylenimine Linear (PEI, YEASEN) in 6 -well plates. Following a 4-hour incubation period, the cells were transferred to fresh medium. After 24 hours, they were harvested and suspended in assay buffer ( HBSS with 10 mM HEPES, pH 7.4), supplemented with a 3% v/v dilution of D -Luciferin-Potassium Salt (YEASEN).
Following a subsequent 1 -hour incubation, ligands, diluted in assay buffer with forskolin, were introduced to the cells. Subsequently, the cells wer e incubated for 30 minutes in a light-free environment at room temperature […] signals were measured using a Synergy H1 microplate reader (BioTek). […]

| reduced Y1R activation compared to NPY [1] | Y2R activation compared with NPY (in words) [2] | Substance |
| --- | --- | --- |
| > 50 folds | – | NPY^13−36: N-terminally truncated NPY |
| > 50 folds | slightly reduced Y2R activation | NPY^3−36: N-terminal truncated NPY variant, processed by dipeptidyl peptidase IV |
